Data on four molecules can be found in paper PMC2806667 (Molecular microbiology, 2009).

T1: GST-VID (full length) (Bacillus subtilis, UniProt P37963 1-575)
T1 sequence (looked up): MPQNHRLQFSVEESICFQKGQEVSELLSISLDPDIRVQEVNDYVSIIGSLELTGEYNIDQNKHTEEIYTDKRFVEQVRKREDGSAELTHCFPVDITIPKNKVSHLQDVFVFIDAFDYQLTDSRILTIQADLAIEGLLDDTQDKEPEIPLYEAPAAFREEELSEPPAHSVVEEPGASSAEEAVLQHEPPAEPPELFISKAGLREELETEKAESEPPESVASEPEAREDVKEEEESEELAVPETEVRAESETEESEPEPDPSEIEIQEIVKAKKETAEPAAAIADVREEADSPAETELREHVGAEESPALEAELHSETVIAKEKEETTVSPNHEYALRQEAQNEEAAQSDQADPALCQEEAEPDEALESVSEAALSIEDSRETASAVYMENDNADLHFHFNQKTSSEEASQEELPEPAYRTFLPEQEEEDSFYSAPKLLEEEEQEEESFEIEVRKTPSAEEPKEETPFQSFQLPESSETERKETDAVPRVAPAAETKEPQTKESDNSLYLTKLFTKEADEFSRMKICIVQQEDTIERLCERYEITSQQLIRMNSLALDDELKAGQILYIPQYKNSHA

T2: His6-VID full length (Bacillus subtilis, UniProt P37963 1-575)
T2 sequence (looked up): T1 sequence (looked up)

B1: His6-VID(121-575) (domain or fragment, Bacillus subtilis, UniProt P37963 121-575, looked up)
chain: DSRILTIQADLAIEGLLDDTQDKEPEIPLYEAPAAFREEELSEPPAHSVVEEPGASSAEEAVLQHEPPAEPPELFISKAGLREELETEKAESEPPESVASEPEAREDVKEEEESEELAVPETEVRAESETEESEPEPDPSEIEIQEIVKAKKETAEPAAAIADVREEADSPAETELREHVGAEESPALEAELHSETVIAKEKEETTVSPNHEYALRQEAQNEEAAQSDQADPALCQEEAEPDEALESVSEAALSIEDSRETASAVYMENDNADLHFHFNQKTSSEEASQEELPEPAYRTFLPEQEEEDSFYSAPKLLEEEEQEEESFEIEVRKTPSAEEPKEETPFQSFQLPESSETERKETDAVPRVAPAAETKEPQTKESDNSLYLTKLFTKEADEFSRMKICIVQQEDTIERLCERYEITSQQLIRMNSLALDDELKAGQILYIPQYKNSHA
B2: His6-IVA (SpoIVA) (natural protein, Bacillus subtilis, UniProt P35149 1-492, looked up)
chain: MEKVDIFKDIAERTGGDIYLGVVGAVRTGKSTFIKKFMELVVLPNISNEADRARAQDELPQSAAGKTIMTTEPKFVPNQAMSVHVSDGLDVNIRLVDCVGYTVPGAKGYEDENGPRMINTPWYEEPIPFHEAAEIGTRKVIQEHSTIGVVITTDGTIGDIARSDYIEAEERVIEELKEVGKPFIMVINSVRPYHPETEAMRQDLSEKYDIPVLAMSVESMRESDVLSVLREALYEFPVLEVNVNLPSWVMVLKENHWLRESYQESVKETVKDIKRLRDVDRVVGQFSEFEFIESAGLAGIELGQGVAEIDLYAPDHLYDQILKEVVGVEIRGRDHLLELMQDFAHAKTEYDQVSDALKMVKQTGYGIAAPALADMSLDEPEIIRQGSRFGVRLKAVAPSIHMIKVDVESEFAPIIGTEKQSEELVRYLMQDFEDDPLSIWNSDIFGRSLSSIVREGIQAKLSLMPENARYKLKETLERIINEGSGGLIAIIL
B3: GST-VID L201-A575 fragment (domain or fragment, Bacillus subtilis, UniProt P37963 201-575, looked up)
chain: LREELETEKAESEPPESVASEPEAREDVKEEEESEELAVPETEVRAESETEESEPEPDPSEIEIQEIVKAKKETAEPAAAIADVREEADSPAETELREHVGAEESPALEAELHSETVIAKEKEETTVSPNHEYALRQEAQNEEAAQSDQADPALCQEEAEPDEALESVSEAALSIEDSRETASAVYMENDNADLHFHFNQKTSSEEASQEELPEPAYRTFLPEQEEEDSFYSAPKLLEEEEQEEESFEIEVRKTPSAEEPKEETPFQSFQLPESSETERKETDAVPRVAPAAETKEPQTKESDNSLYLTKLFTKEADEFSRMKICIVQQEDTIERLCERYEITSQQLIRMNSLALDDELKAGQILYIPQYKNSHA
B4: His6-VID(121-521) (domain or fragment, Bacillus subtilis, UniProt P37963 121-521, looked up)
chain: DSRILTIQADLAIEGLLDDTQDKEPEIPLYEAPAAFREEELSEPPAHSVVEEPGASSAEEAVLQHEPPAEPPELFISKAGLREELETEKAESEPPESVASEPEAREDVKEEEESEELAVPETEVRAESETEESEPEPDPSEIEIQEIVKAKKETAEPAAAIADVREEADSPAETELREHVGAEESPALEAELHSETVIAKEKEETTVSPNHEYALRQEAQNEEAAQSDQADPALCQEEAEPDEALESVSEAALSIEDSRETASAVYMENDNADLHFHFNQKTSSEEASQEELPEPAYRTFLPEQEEEDSFYSAPKLLEEEEQEEESFEIEVRKTPSAEEPKEETPFQSFQLPESSETERKETDAVPRVAPAAETKEPQTKESDNSLYLTKLFTKEADEFSR

The target in experiment [1] is B2. The experiment is described as follows: far-Western, overlay or dot blot.
Another experiment concerns the target T1, GST-VID (full length). Briefly: pull-down.
A further experiment concerns the target T2, His6-VID full length. The experiment is described as follows: far-Western, overlay or dot blot.
Experiment [2] has as its target B2. Briefly: pull-down.

For the molecule B1, the binding result in the experiment with His6-IVA (SpoIVA) [1] is “binds”.
As for B2, the binding result with GST-VID (full length) and with His6-VID full length was “binds” each time.
Consider B3, for which the binding result with His6-IVA (SpoIVA) [2] is given as “binds”.
With B4, the binding result with His6-IVA (SpoIVA) [1] is given as “binds”.
